Data from US20260232829A1 (CYTOSPIRE THERAPEUTICS, published 2026).

B1: Human IL-15R beta/CD122 Protein, His Tag (Acro Biosystems CD2-H5221) (receptor, UniProt P14784 27-239, looked up)
chain: AVNGTSQFTCFYNSRANISCVWSQDGALQDTSCQVHAWPDRRRWNQTCELLPVSQASWACNLILGAPDSQKLTTVDIVTLRVLCREGVRWRVMAIQDFKPFENLRLMAPISLQVVHVETHRCNISWEISQASHYFERHLEFEARTLSPGHTWEEAPLLTLKQKQEWICLETLTPDTQYEFQVRVKPLQGEFTTWSPWSQPLAFRTKPAALGKD
notes: Bought recombinant protein with a His tag; also called Human IL-15Rβ protein; IL-15 receptor beta-His
B2: Human his-tagged NKG2D/CD314 (Acro Biosystems, NKD-H5245) (receptor, UniProt P26718 78-216, looked up)
chain: FLNSLFNQEVQIPLTESYCGPCPKNWICYKNNCYQFFDESKNWYESQASCMSQNASLLKVYSKEDQDLLKLVKSYHWMGLVHIPTNGSWQWEDGSILSPNLLTIIEMQKGDCALYASSFKGYIENCSTPNTYICMQRTV
notes: Bought recombinant protein with a His tag; also called Human NKG2D-His protein; NKG2D-His
B3: CYTB21 (antibody, human IgG1, kappa, V domains shown)
VH: EVQLVQSGAEVKEPGESLKISCKNSGYSFTNYWVGWVRQMPGKGLEWMGIIYPGDSDTRYSPSFQGQVTISADKSINTAYLQWSSLKASDTAMYYCGRLTMFRGIIIGYFDYWGQGTLVTVSS
VL: EIVLTQSPATLSLSPGERATLSCRASQSVSSYLAWYQQKPGQAPRLLIYDASNRATGIPARFSGSGSGTDFTLTISSLEPEDFAVYYCQQRSNWPWTFGQGTKVEIKR
notes: Control, Format E: anti-NKG2D IgG1 (H6/L6) without IL-15 components; also called CYB21; anti-NKG2D IgG1

How the values were obtained:
CYTB29 [1] = target: T1, CYTB29; assay: SPR avidity format, antigen immobilised on CM5 chip, test molecule injected as analyte
T1 construct: Comparator, Format G: three chains, monovalent for NKG2D (H5/L5) and IL-15 receptor beta; wild-type IL-15
Description: (§1) In order explore avidity binding effects (rather than affinity), a different assay orientation was employed. Specifically, the recombinant target human antigens (NKG2D-His or IL-15 receptor beta-His antigens, see Example 5) were immobilized on CM5 Series S sensor chips (Cytiva, catalogue number 29149603). […] Irrelevant mAbs were employed to determine and subtract background. As previously (Example 5), standard regeneration solutions and buffers were employed. To determine and compare avidity effects, test molecules were the injected in stepwise serial dilutions and sensogram responses generated.

CYTB29 [2] = target: T1, CYTB29; assay: SPR (Biacore), molecule captured on anti-human IgG Fc chip, antigen as analyte, 1:1 Langmuir fit
Procedure: (§2) In brief, the test molecules were first immobilized on a goat anti-human IgG (Fc specific) antibody plated on a Biacore CM5 Series S sensor chip (CFJB1172, Cytiva Cat No. 29149603) by injection at 5 nM at flow rate 30 ul/min. […] The quality of the fits was assessed by visual inspection.

CYTB04 = target: T2, CYTB04; assay: as above
T2 construct: Immunocytokine, Format A: anti-NKG2D IgG1 (H5/L5) with sushi-IL-15 at the C-terminus of each heavy chain
Procedure: as §2

CYTB30 = target: T3, CYTB30; assay: SPR avidity format, antigen immobilised on CM5 chip, test molecule injected as analyte; avidity format of Table 6 (Example 6); not the capture format of Table 5
T3 construct: Comparator, Format G: three chains, monovalent for both targets; also called CYB30
Description: as §1

[3] = target: B2; assay: SPR (Biacore), molecule captured on anti-human IgG Fc chip, antigen as analyte, 1:1 Langmuir fit
Procedure: as §2

| Kd (CYTB29 [1]) [nM] | Kd (CYTB29 [2]) [nM] | Kd (CYTB04) [nM] | Kd (CYTB30) [nM] | Kd [3] [nM] | Binder |
| --- | --- | --- | --- | --- | --- |
| 6.4 | 3.52 | 6 |  |  | B1 |
| 4.8 | 1.92 | 1.25 | 3830 |  | B2 |
|  |  |  |  | 1.65 | B3 |
